In patent publication US20150368351A1 (ENGMAB SARL, published 2015):

Assays:
[1] = target: T1, recombinant human BCMA Fc(kih) (human, UniProt Q02223 4-53, biotin on the avi-tag at the C-terminus of the Fc knob chain (BirA, in vivo)); assay: SPR, Biacore T200, 25 C; IgG captured by anti-human Fab antibody on CM5 chip, BCMA Fc(kih) as analyte, 1:1 Langmuir
T1 construct: range 4-53;domain: Fc portion (hole chain); Monomeric Fc fusion made in HEK EBNA cells: one BCMA extracellular domain on the knob chain, paired with an unfused hole chain; also called huBCMA Fc(kih); biotinylated human BCMA; not shown: hinge and Fc portion of human IgG1, knob chain (knobs-into-holes)
T1 chain (looked up): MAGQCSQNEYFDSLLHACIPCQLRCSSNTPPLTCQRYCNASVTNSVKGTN

[2] = target: T2, human BCMA on BCMA-expressing multiple myeloma cells (H929, RPMI-8226) (human, UniProt Q02223 1-184); assay: flow cytometry on H929 cells; IgG 20 µg/mL incubated together with competitor Δ-APRIL 2.5 µg/mL; fluorochrome-conjugated anti-human Fc detection
T2 construct: whole, on cells; Endogenous BCMA on H929 (ATCC CRL-9068) or RPMI 8226 (ATCC CCL-155) cells; also called TNFRSF17; H929 cells
T2 sequence (looked up): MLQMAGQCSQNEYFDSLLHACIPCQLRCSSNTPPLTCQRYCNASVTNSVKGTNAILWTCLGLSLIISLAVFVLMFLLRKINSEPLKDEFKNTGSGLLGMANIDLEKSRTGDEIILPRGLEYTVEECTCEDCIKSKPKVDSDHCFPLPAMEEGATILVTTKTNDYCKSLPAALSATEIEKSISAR

[3] = target: T1, recombinant human BCMA Fc(kih); assay: SPR, ProteOn XPR36, 25 C; biotinylated BCMA on NLC chip by neutravidin capture, Fab as analyte, 1:1 Langmuir
[4] = target: T1, recombinant human BCMA Fc(kih); assay: competition ELISA; biotinylated human BCMA on neutravidin plate saturated with 500 or 1000 nM Fab, competitor murine APRIL 50 nM (1000 ng/mL); anti-FLAG-HRP, OD450-650
[5] = target: T1, recombinant human BCMA Fc(kih); assay: competition ELISA; biotinylated human BCMA on neutravidin plate saturated with 500 or 1000 nM Fab, competitor murine APRIL 6.25 nM (140 ng/mL); anti-FLAG-HRP, OD450-650

B1: 13A4 anti-BCMA IgG (antibody, V domains shown)
VH: EVQLVQSGAEVKKPGESLKISCKGSGYSFTSYWIGWVRQMPGKGLEWMGIIYPGDSDTRYSPSFQGQVTISADKSISTAYLQWSSLKASDTAMYYCARNGYLGDYWGQGTLVTVSS
VL: not shown
With B1 the Kd [1] was 5.1 nM, the koff [1] was 0.00036 s⁻¹ and the kon [1] was 72000 M⁻¹ s⁻¹. The “Reduction (↓) in binding of anti-BCMA antibodies in presence of APRIL” value [2] was 25%.

B2: anti-BCMA Fab clone 13A4 (Fab, V domains shown)
VH: B1 VH
VL: not shown
notes: detected by anti-FLAG antibody
For B2, the Kd [3] was 1.8 nM, the “Reduction (↓) in OD values in presence of muAPRIL” value [4] was 13.1% and the “Reduction (↓) in OD values in presence of muAPRIL” value [5] was 7.7%.
